Assay results: patent US20210395344A1 (TWIST BIOSCIENCE, published 2021)
Where a chain is given by its changes, count along the chain named. Read-outs that look alike come from different tables or passages of the source.

B1: 1-29 (antibody, V domains shown)
VH: EVQLLESGGGLVQPGGSLRLSCAASGFTFSSYAMYWVRQAPGKGLEWVSAISGSAGSTYYADSVKGRFTISRDNSKNTLYLQMNSLRAEDTAVYYCARDTNDFWSGYSIFDPWGQGTLVTVSS
VL: QSALTQPASVSGSPGQSITISCTGTSSDIGSYNLVSWYQQHPGKAPKLMIYEGTKRPSGVSNRFSGSKSGNTASLTISGLQAEDEADYYCCSYAGSRTYVFGGGTKLTVL
notes: also called variant 1-29
B2: 1-49 (antibody, V domains shown)
VH: EVQLLESGGGLVQPGGSLRLSCAASGFTFSSYAMYWVRQAPGKGLEWVSAISGSAGSTYYADSVKGRFTISRDNSKNTLYLQMNSLRAEDTAVYYCARDTNDFWGQGTLVTVSS
VL: B1 VL
notes: also called variant 1-49
B3: 1-48 (antibody, V domains shown)
VH: B1 VH with Y32H, R98H, N101K, S108C
VL: B1 VL
notes: also called variant 1-48
B4: 1-2 (antibody, V domains shown)
VH: EVQLLESGGGLVQPGGSLRLSCAASGFTFSSQAMSWVRQAPGKGLEWVSAISGSGGGTYYADSVKGRFTISRDNSKNTLYLQMNSLRAEDTAVYYCAKDRRFGEFDPWGQGTLVTVSS
VL: QSALTQPASVSGSPGQSITISCTGTSSGVGSYNLVSWYQQHPGKAPKLMIYEGIKRPSGVSNRFSGSKSGNTASLTISGLQAEDEADYYCCSYAGSSSFVVFGGGTKLTVL
notes: also called variant 1-2
B5: 1-31 (antibody, V domains shown)
VH: EVQLLESGGGLVQPGGSLRLSCAASGFTFSSYAMNWVRQAPGKGLEWVSAISGSGGSTFYADSVKGRFTISRDNSKNTLYLQMNSLRAEDTAVYYCTRPPYGDYGDYWGQGTLVTVSS
VL: B4 VL with G28D, S31K, I54S, K55Q, S97R, S98T, F99P
notes: also called variant 1-31
B6: 1-35 (antibody, V domains shown)
VH: EVQLLESGGGLVQPGGSLRLSCAASGFTFSNYAMSWVRQAPGKGLEWVSDISGSGGSTYYADSVKGRFTISRDNSKNTLYLQMNSLRAEDTAVYYCVKGTIPIFGVIRSAFDYWGQGTLVTVSS
VL: B4 VL with G28D, N33S, I54T, S97Y, F99Y
notes: also called variant 1-35
B7: 1-27 (antibody, V domains shown)
VH: EVQLLESGGGLVQPGGSLRLSCAASGFTFSSYAMTWVRQAPGKGLEWVSAISGSGGGTYYADSVKGRFTISRDNSKNTLYLQMNSLRAEDTAVYYCASSSSWQFDYWGQGTLVTVSS
VL: B4 VL with G28Y, S31H, I54S, K55R, S97Y, S98T, F99H, V100Y
notes: also called variant 1-27
B8: 1-12 (antibody, V domains shown)
VH: EVQLLESGGGLVQPGGSLRLSCAASGITFSSYAMSWVRQAPGKGLEWVSGISGSGGSTYYADSVKGRFTISRDNSKNTLYLQMNSLRAEDTAVYYCAKHGSGTIFGVVIAKYYFDYWGQGTLVTVSS
VL: B4 VL with G28D, S31H, I54T
notes: also called variant 1-12
B9: 1-3 (antibody, V domains shown)
VH: B4 VH
VL: B4 VL with T25I, G28D, I54T
notes: also called variant 1-3
B10: 1-20 (antibody, V domains shown)
VH: B8 VH with K98N
VL: B4 VL with G28D, S31H, I54T
notes: also called variant 1-20
B11: 1-5 (antibody, V domains shown)
VH: B4 VH
VL: B4 VL with G53A, I54S, S97Y, S98T, V100A
notes: also called variant 1-5
B12: 1-4 (antibody, V domains shown)
VH: B4 VH
VL: B4 VL with G28D, S31T, I54S, K55Q
notes: also called variant 1-4
B13: 1-30 (antibody, V domains shown)
VH: B5 VH with N35T
VL: B4 VL with S27R, G28D, I54T, S97R, S98T, F99P
notes: also called variant 1-30
B14: 1-23 (antibody, V domains shown)
VH: EVQLLESGGGLVQPGGSLRLSCAASGFTFSSYAISWVRQAPGKGLEWVSIISGSGGSTYYADSVKGRFTISRDNSKNTLYLQMNSLRAEDTAVYYCAREGYRDYLWYFDLWGQGTLVTVSS
VL: QSALTQPASVSGSPGQSITISCTGTSNDVGSYNLVSWYQQHPGKAPKLMIYEGNKRPSGVSNRFSGSKSGNTASLTISGLQAEDEADYYCCSYAGSYTVFGGGTKLTVL

Tests used:
[1] = biological target: T1, SARS-CoV-2 S1 (antigen of the Carterra SPR kinetics) (SARS-CoV-2, UniProt P0DTC2 16-685); experiment: Carterra SPR
S1-Fc [2] = biological target: T2, S1-Fc (SARS-CoV-2, UniProt P0DTC2 16-685); experiment: phage ELISA
[3] = biological target: T3, COVID S1 RBM Fc fusion (Antigen 2) (SARS-CoV-2, UniProt P0DTC2 437-508); experiment: phage ELISA
T3 construct: domain: RBM

S1-Fc [4] = biological target: T2, S1-Fc; experiment: phage ELISA; remark: listed apart in the source
[5] = biological target: T3, COVID S1 RBM Fc fusion (Antigen 2); experiment: phage ELISA; remark: listed apart in the source
[6] = biological target: T1, SARS-CoV-2 S1 (antigen of the Carterra …); experiment: Carterra SPR; remark: listed apart in the source
[7] = biological target: T4, SARS-CoV-2 Spike Glycoprotein S1 (subunit 1) (SARS-CoV-2, UniProt P0DTC2 16-685); experiment: screening phage ELISA, mean
T4 construct: also called S1 Monomer; SARS-CoV-2 S1

[8] = biological target: T4, SARS-CoV-2 Spike Glycoprotein S1 …; experiment: screening phage ELISA, mean; remark: listed apart in the source

Binder	koff [1] [s⁻¹]	kon [1] [M⁻¹ s⁻¹]	ELISA fold over background (S1-Fc [2]) [fold over background]	ELISA fold over background [3] [fold over background]	ELISA fold over background (S1-Fc [4]) [fold over background]	ELISA fold over background [5] [fold over background]	Kd [6] [nM]	koff [6] [s⁻¹]	kon [6] [M⁻¹ s⁻¹]	ELISA (Avg) [7]	ELISA (Avg) [8]
B1	0.00197	535	1	0.9	1	0.9	3680	0.00197	535		
B2				0.8		0.8					
B3				0.8		0.8					
B4	0.0272	1580	1.7	1.7	1.7	1.7	17200	0.0272	1580		
B5	0.000762	20500	15.7	1.2	15.7	1.2	37.2	0.000762	20500		
B6				1.6		1.6					
B7	0.00285	227000	1.3	1.6	1.3	1.6	12.5	0.00285	227000		
B8							372				
B9	0.304	1.42e+06	1.5	1.5	1.5	1.5	215	0.304	1.42e+06		
B10				0.8		0.8					
B11	0.054	2150	1.2	1.4	1.2	1.4	25200	0.054	2150		
B12	0.124	42000	0.9	1.1	0.9	1.1	2950	0.124	42000		
B13	0.00164	43900	5.6	1.4	5.6	1.4	37.2	0.00164	43900		
B14										23.1	23.1
